Measurements: patent publication US20100092481A1 (INSTITUTE FOR RESEARCH IN BIOMEDICINE, published 2010)

B1: 8C15 (antibody, V domains shown)
VH: QVQLQESGPGLVKPSETLSLTCTVSGGSIRSYYWSWIRQPPGKGLEWIGHIYYSGNTNYSPSLQSRVTISLDTPKNQFSLRLSSVTAADTAVYYCARHDVIVVRGVFDVWGQGTVVTVSS
VL: QSALTQPASVSGSPGQSITISCTGTSSDIGTYNLVSWYQQHPGKAPKVLIYDGSKRPSGVSSRFSASKSGNTASLTISGLQAEDETDYYCCSYAGTSDFFVVFGGGTKLTVL
notes: human IgG mAb; also called 8C15-biotin
B2: 2C12 (antibody, V domains shown)
VH: QITLRESGPTLVKPTQTLTLTCTFSGFSLNTNGVGVGWIRQPPGKALEWLALIYWNGNEGYSPSLKSRLTITKDTSKNQVVLTMTNMDPVDTATYYCVHWPQGLTTVTRLAFDIWGQGTMVTVSS
VL: QSALTQPRSVSGSPGQSVTISCTGTTSDVGRYNFVSWYQQHPGKAPKLLMYDVSQRPSGVPSRFSGSKSGNTASLTISGLQAEDEAVFYCCSYAGGNFFSYVFGTGTKVTVL
notes: human IgG mAb; also called 2C12-biotin
B3: 7I13 (antibody, V domains shown)
VH: QVQLVESGGGVVQPGRSLRLSCAASGFTFSNYGMHWVRQGPGKGLEWVAVISYDASSKYYTDSVQGRFTISRDNSKNTLFLQMNSLRGEDTAVYYCAKALRYLDWFLSDPFDYWGQGTLVTVSS
VL: EIVLTQSPGTLSLSPGERATLSCRASQSVSSDFLAWYQQKPGQAPRLLIYGASSRATGIPDRFSGSGSGTDFTLTISRLEPEDFAVYYCQQYAASPPFGQGTRLEIK
notes: human IgG mAb
B4: 9I6 (antibody, V domains shown)
VH: EVQLVQSGAEVKKPGESLKISCRESGDTFPAYWIAWVRQMPGKGLEWMGIIYPIDSETTYSPSFQGQVTISADKSINTAYLQWSSLKASDSAIYYCARGTSTGLREAFHIWGQGTMVTVSS
VL: DVVMTQSPLSLAVTLGQPAYISCRSSQSLGYSDGNTYLNWFQQRPGQSPRRLIYEVSNRDSGVPDRFSGSGSGTDFTLKISRVEAEDVGTYYCMQGTHWPPMCSFGQGTKLEIK
notes: human IgG mAb; also called 9I6-biotin; 916
B5: 8J16 (antibody, V domains shown)
VH: QVQLQESGPGLVKPSETLSLTCSVSGGFTSSYYWSWIRQAPGKGLEWIGYVYYGESTDYNPSLKSRATISIDTSKNQFSLKLSSVTAADTAVYYCAREVDKRGFDYWGQGALVTVSS
VL: EIVLTQSPGTLSLSPGERATLSCRASQSVSGGYLAWYQQEPGQAPRLVIYGASSRATGIPDRFSASGSGTDFTLTITRLEPEDFAVYYCQQYGRTPLTFGGGTKVEIK
notes: human IgG mAb; also called 8J16-biotin
B6: 7B13 (antibody, V domains shown)
VH: QVQLVESGGGVVQPGGSLRLSCAASGFSFSNYGMHWVRQAPGKGLEWVALIPSDGNYQYYTDSVKGRFTVSRDNSRNTLYLQMKSLRAEDTARYHCAHLGGGLFDFWGQGTLVTVSS
VL: QSALNQPRSVSGSPGQSVSISCTGSSSDVGGYEFVSWYQHHPGKAPKLIIYDVDKRPSGVPDRFSGSRSGDTASLTISGLQAEDEADYYCYSSADTWVFGGGTKLTVL
notes: human IgG mAb

Assays:
[1] = molecular target: T1, hCMV gH, gL, UL128, UL130 and UL131A co-expressed in HEK293T cells (human cytomegalovirus, UniProt P12824 24-743; P16832 31-278; P16837 1-171; P16772 1-214); test: cell cross-competition, 20x excess; competitor 9I6-biotin
T1 construct: whole, on cells; also called gH + gL + UL128 + UL130 + UL131A; gH/gL/UL128-130 complex

[2] = molecular target: T2, hCMV UL128, UL130 and UL131A co-expressed in HEK293T cells (human cytomegalovirus, UniProt P16837 1-171; P16772 1-214); test: cell-based or functional assay
T2 sequence (P16837 whole entry, chain 1 of 2): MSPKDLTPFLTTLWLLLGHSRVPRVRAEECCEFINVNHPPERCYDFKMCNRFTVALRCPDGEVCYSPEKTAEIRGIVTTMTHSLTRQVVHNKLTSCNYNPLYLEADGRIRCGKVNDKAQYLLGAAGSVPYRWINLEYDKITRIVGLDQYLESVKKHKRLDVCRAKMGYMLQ
T2 sequence (P16772 whole entry, chain 2 of 2): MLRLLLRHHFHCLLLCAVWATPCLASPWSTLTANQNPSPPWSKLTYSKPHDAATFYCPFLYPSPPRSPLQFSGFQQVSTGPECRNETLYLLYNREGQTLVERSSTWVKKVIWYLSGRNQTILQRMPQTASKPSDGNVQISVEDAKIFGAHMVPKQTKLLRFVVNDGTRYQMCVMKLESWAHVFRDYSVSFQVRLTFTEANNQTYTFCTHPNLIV

[3] = molecular target: T1, hCMV gH, gL, UL128, UL130 and UL131A …; test: cell cross-competition, 20x excess; competitor 2C12-biotin
[4] = molecular target: T1, hCMV gH, gL, UL128, UL130 and UL131A …; test: cell cross-competition, 20x excess; competitor 8J16-biotin
[5] = molecular target: T1, hCMV gH, gL, UL128, UL130 and UL131A …; test: cell cross-competition, 20x excess; competitor 6G4-biotin
[6] = molecular target: T2, hCMV UL128, UL130 and UL131A …; test: cell-based or functional assay; remark: listed apart in the source
[7] = molecular target: T1, hCMV gH, gL, UL128, UL130 and UL131A …; test: cell cross-competition, 20x excess; competitor 8I21-biotin
[8] = molecular target: T1, hCMV gH, gL, UL128, UL130 and UL131A …; test: cell cross-competition, 20x excess; competitor 8C15-biotin
[9] = molecular target: T1, hCMV gH, gL, UL128, UL130 and UL131A …; test: cell cross-competition, 20x excess; competitor 4I22-biotin
[10] = molecular target: T1, hCMV gH, gL, UL128, UL130 and UL131A …; test: cell cross-competition, 20x excess; competitor 4N10-biotin
[11] = molecular target: T1, hCMV gH, gL, UL128, UL130 and UL131A …; test: cell cross-competition, 20x excess; competitor 15D8-biotin
[12] = molecular target: T1, hCMV gH, gL, UL128, UL130 and UL131A …; test: cell cross-competition, 20x excess; competitor 10F7-biotin
[13] = molecular target: T1, hCMV gH, gL, UL128, UL130 and UL131A …; test: cell cross-competition, 20x excess; competitor 2F4-biotin
[14] = molecular target: T1, hCMV gH, gL, UL128, UL130 and UL131A …; test: cell cross-competition, 20x excess; competitor 1F11-biotin
[15] = molecular target: T1, hCMV gH, gL, UL128, UL130 and UL131A …; test: cell cross-competition, 20x excess; competitor 5A2-biotin

Binder | Inhibition of binding (%) [1] | 50% Neutralization ARPE (hCMV VR1814) [2] | 50% Neutralization MRC-9 (hCMV VR1814) [2] | Inhibition of binding (%) [3] | Inhibition of binding (%) [4] | Inhibition of binding (%) [5] | 90% Neutralization ARPE (hCMV VR1814) [6] | 90% Neutralization MRC-9 (hCMV VR1814) [6] | Inhibition of binding (%) [7] | Inhibition of binding (%) [8] | Inhibition of binding (%) [9] | Inhibition of binding (%) [10] | Inhibition of binding (%) [11] | Inhibition of binding (%) [12] | Inhibition of binding (%) [13] | Inhibition of binding (%) [14] | Inhibition of binding (%) [15]
B1 | 100% | < 0.001 µg/mL | > 2 µg/mL | 100% | 100% | 100% | 0.0025 µg/mL | > 10 µg/mL | 0% | 100% | 0% |  |  |  |  |  | 
B2 | 100% | < 0.01 µg/mL | ≤ 2 µg/mL | 100% | 100% | 100% | 0.006 µg/mL | > 10 µg/mL | 0% | 100% | 0% | 0% | 0% | 0% | 0% | 0% | 0%
B3 | 0% | < 0.01 µg/mL | > 2 µg/mL | 0% | 0% | 0% | 0.008 µg/mL | > 10 µg/mL | 0% | 0% |  |  |  |  |  | 0% | 
B4 | 100% | < 0.001 µg/mL | > 2 µg/mL | 100% | 100% | 100% | 0.0007 µg/mL | > 10 µg/mL | 0% | 100% | 0% |  |  |  | 0% | 0% | 
B5 | 70% | < 0.001 µg/mL | > 2 µg/mL | 100% | 100% | 100% | 0.0008 µg/mL | > 10 µg/mL | 0% | 100% | 0% |  |  |  | 0% | 0% | 
B6 | 100% | < 0.001 µg/mL | > 2 µg/mL | 100% | 100% | 100% | 0.003 µg/mL | > 10 µg/mL | 0% | 100% |  |  |  |  |  |  | 
